Results taken from US20030105303A1.

Assays:
[1] = molecular target: DNAX Leukocyte Associated Immunoglobulin-like Receptor (DLAIR-1), the DX26 antigen / YE01 gene product (human); experiment: flow cytometry (FACScan) on CEM T cell tumor cells; PE goat-anti-mouse-IgG second step
[2] = molecular target: DNAX Leukocyte Associated Immunoglobulin-like Receptor (DLAIR-1), the DX26 antigen / YE01 gene product (human); experiment: flow cytometry (FACScan) on Peer T cell tumor cells; PE goat-anti-mouse-IgG second step
[3] = molecular target: DNAX Leukocyte Associated Immunoglobulin-like Receptor (DLAIR-1), the DX26 antigen / YE01 gene product (human); experiment: flow cytometry (FACScan) on HUT78 T cell tumor cells; PE goat-anti-mouse-IgG second step
[4] = molecular target: DNAX Leukocyte Associated Immunoglobulin-like Receptor (DLAIR-1), the DX26 antigen / YE01 gene product (human); experiment: flow cytometry (FACScan) on Molt4 T cell tumor cells; PE goat-anti-mouse-IgG second step
[5] = molecular target: DNAX Leukocyte Associated Immunoglobulin-like Receptor (DLAIR-1), the DX26 antigen / YE01 gene product (human); experiment: flow cytometry (FACScan) on U937 myeloid tumor cells; PE goat-anti-mouse-IgG second step
[6] = molecular target: DNAX Leukocyte Associated Immunoglobulin-like Receptor (DLAIR-1), the DX26 antigen / YE01 gene product (human); experiment: flow cytometry (FACScan) on Jurkat T cell tumor cells; PE goat-anti-mouse-IgG second step
[7] = molecular target: DNAX Leukocyte Associated Immunoglobulin-like Receptor (DLAIR-1), the DX26 antigen / YE01 gene product (human); experiment: flow cytometry (FACScan) on HL60 promyeloid tumor cells; PE goat-anti-mouse-IgG second step

DX26 monoclonal antibody
mean fluorescence intensity [1]: 92.7
mean fluorescence intensity [2]: 29.1
mean fluorescence intensity [3]: 25.8
mean fluorescence intensity [4]: 30.7
mean fluorescence intensity [5]: 49.5
mean fluorescence intensity [6]: 47.1
mean fluorescence intensity [7]: 46.9
